The values below come from article PMC9894260 (Proceedings of the National Academy of Sciences of the …, 2022).

Sequences and labels used below:
T1: ARPC1 (subunit of fission yeast Arp2/3 complex) (S. pombe, UniProt P78774)
T1 sequence: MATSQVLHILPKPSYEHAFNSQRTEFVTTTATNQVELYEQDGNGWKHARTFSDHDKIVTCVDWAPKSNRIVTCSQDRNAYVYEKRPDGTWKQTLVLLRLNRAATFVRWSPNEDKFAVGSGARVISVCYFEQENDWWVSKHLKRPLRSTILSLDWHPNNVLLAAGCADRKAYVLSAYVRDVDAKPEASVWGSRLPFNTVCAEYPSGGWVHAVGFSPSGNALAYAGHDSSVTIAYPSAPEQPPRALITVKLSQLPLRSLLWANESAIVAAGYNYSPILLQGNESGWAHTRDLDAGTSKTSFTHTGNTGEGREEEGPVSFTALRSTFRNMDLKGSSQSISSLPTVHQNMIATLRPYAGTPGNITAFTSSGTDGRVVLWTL

B1: ARPC4 (subunit of fission yeast Arp2/3 complex) (natural protein)
chain: not shown
B2: ARPC3 (subunit of fission yeast Arp2/3 complex) (natural protein)
chain: MPAYHSSFLSLTDVPTTGNIAMLPLKTKFRGPAYPADESQMDIIDECIGLFRANCFFRNFEIKGPADRTLIYGTLFISECLGRVNGLNYRDAERQLNSLALENFSIPGSAGFPLNALYAPPLSPQDAEIMRTYLTQFRQELAYRLLSHVYATEKDHPSKWWTCFSKRRFMNKAL
B3: ARPC2 (subunit of fission yeast Arp2/3 complex) (natural protein)
chain: MLSLDYNNIFIYELLTERFSSENPSSIDQVVTDFDGVTFHISTPEEKTKILISLSMKCYPELVNYGTLDLLKQIYGAYVHEPEMGYNFSILIDLQQLPATDEEKEQLAMSISMLKRNVLAAPFHRAFTKQAELADLARKDPENAPMLDKQATSQELMAIHYRDEETIVLWPEHDRVTVVFSTKFREETDRIFGKVFLQEFVDARRRPAIQTAPQVLFSYRDPPLEIRDIQGIQKGDDFGFVTFVLFERHFTPQNREDCISHIQVFRNTLHFHIKASKAYMHQRMRKRVADFQKVLNRAKPDVELERKTATGRSFVRA

What all share (test): cryo-EM structure
The target of test [1] is T1, ARPC1 (subunit of fission yeast Arp2/3 …).
In test [2] the target is B3.
The target of test [3] is Arp2 (subunit of fission yeast Arp2/3 complex) (S. pombe, UniProt Q9UUJ1).
Chain of Arp2 (subunit of fission yeast Arp2/3 complex) (Q9UUJ1 whole entry, one chain of several): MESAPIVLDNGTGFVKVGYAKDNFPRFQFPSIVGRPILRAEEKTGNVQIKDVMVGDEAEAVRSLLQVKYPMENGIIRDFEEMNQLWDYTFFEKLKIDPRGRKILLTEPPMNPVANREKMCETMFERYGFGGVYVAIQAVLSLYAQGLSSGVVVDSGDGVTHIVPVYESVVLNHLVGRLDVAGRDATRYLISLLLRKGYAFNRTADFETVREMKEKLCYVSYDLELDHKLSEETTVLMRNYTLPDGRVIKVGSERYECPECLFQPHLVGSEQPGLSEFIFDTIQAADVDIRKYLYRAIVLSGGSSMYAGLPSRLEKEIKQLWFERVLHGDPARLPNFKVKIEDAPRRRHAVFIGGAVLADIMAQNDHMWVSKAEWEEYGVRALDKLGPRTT

Turning to B1, the binding result in test [1] and in test [2] was “binds” throughout.
B2: the binding result in test [3] was “binds”.
Regarding B3, the binding result in test [3] and in test [1] was “binds” in each case.
